{
  "source": "paper PMC5449627",
  "target": "AGO2 (Argonaute 2) (UniProt Q9UKV8)",
  "sequence (Q9UKV8 whole entry)": "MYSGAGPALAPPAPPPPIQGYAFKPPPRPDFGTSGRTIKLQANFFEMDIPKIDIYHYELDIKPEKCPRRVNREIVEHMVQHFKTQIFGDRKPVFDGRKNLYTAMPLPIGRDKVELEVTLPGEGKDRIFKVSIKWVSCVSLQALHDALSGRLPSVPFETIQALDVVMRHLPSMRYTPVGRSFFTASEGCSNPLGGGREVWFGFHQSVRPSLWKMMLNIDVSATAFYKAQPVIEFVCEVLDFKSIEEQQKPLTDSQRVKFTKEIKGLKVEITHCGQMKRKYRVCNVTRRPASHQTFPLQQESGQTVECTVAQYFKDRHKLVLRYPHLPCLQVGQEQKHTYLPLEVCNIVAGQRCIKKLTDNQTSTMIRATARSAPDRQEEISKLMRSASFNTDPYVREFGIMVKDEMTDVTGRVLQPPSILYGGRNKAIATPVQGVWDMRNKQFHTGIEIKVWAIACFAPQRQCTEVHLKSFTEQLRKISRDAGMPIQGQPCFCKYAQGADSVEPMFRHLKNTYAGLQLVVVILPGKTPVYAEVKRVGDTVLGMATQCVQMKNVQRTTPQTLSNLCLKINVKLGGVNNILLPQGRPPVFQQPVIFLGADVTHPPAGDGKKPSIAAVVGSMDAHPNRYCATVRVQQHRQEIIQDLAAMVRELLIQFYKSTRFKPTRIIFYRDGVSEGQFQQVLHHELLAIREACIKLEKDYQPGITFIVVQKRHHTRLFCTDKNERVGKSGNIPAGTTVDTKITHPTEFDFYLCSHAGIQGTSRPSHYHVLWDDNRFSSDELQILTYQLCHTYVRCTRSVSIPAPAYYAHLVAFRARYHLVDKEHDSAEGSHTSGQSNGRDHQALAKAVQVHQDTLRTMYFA",
  "experiment": "single-molecule FRET",
  "details": "guide 5' phosphate; internal amino-C6 U18; single-molecule FRET on immobilized biotinylated target RNA; 100 nM AUF1 where added; buffer, salt, pH and temperature not in the material",
  "data": [
    {"sequence": "UGAGGUAGUAGGUUGUGUGGUU / UAACCACACUGUUGACUACCUCACCCCCCCCCCCCCCCC [let-7b guide / POLR2D RNA with let-7b WT]", "values": [
      {"measurement": "binding signal (% decrease of binding rate)", "result": 42}
    ]},
    {"sequence": "UGAGGUAGUAGGUUGUGUGGUU / UAACCACACUGUUGACUACCUCAUUCCUGGUUUUUGGCCUCCACAUCAUCUUUUUUCUUAAUAUUUCAUCCCCCCCCCCCCCCCC [let-7b guide / POLR2D RNA with let-7b WT and AUF1 site]", "values": [
      {"measurement": "binding signal (% decrease of binding rate)", "result": 78}
    ]}
  ]
}
